Experimental data reported in patent US20060024786A1, “WASP and N-WASP constructs and methods of expressing such constructs” (Cytokinetics, Inc., priority 2004, published 2006).

Legend:
Experiment in all cases: cell-based or functional assay
Arp2/3 complex (human) = Arp2/3 complex (human) (UniProt P61158)
[1] = biological target: full length human WASP (Myc-WASP-TAP) (human)
[2] = biological target: full length human N-WASP (Myc-N-WASP-TAP) (human)

Substance | activity relative to 105 WASP (actin polymerization, EC50 comparison) (Arp2/3 complex (human)) | concentration giving maximal barbed ends (500 nM Cdc42, 2.5 nM Arp2/3, 3.5 uM actin) (Arp2/3 complex (human)) | potency relative to the VCA/WA domain (actin polymerization, EC50 comparison) (Arp2/3 complex (human)) | EC50, nM (activation of actin polymerization) [1] | EC50, nM (activation of actin polymerization) [2] | Barbed ends % of max. (after subtracting baseline) [1] | Barbed ends, nM (pyrene-actin polymerization assay) [1] | Barbed ends % of max. (after subtracting baseline) [2] | Barbed ends, nM (pyrene-actin polymerization assay) [2]
full length human WASP (Myc-WASP-TAP) | 20 times | 3 nM | > 70 times |  |  |  |  |  | 
N_GST_tev_Cdc42 GTP (bacterial GST tagged Cdc42 protein) (enzyme) |  |  |  | 16 nM | 287 nM |  |  |  | 
GST_NCK2 |  |  |  | 12 nM | 7 nM | 50% | 2.6 nM | 78% | 3.5 nM
